Residue numbers refer to the chain shown, from its start. Values belong to the binder of their own block, whether it stands above or below them.
Assays:
Human CGRP (human) [1] = target: Human CGRP (human) (UniProt P06881); test: SPR, Biacore T100, 37 C
Human CGRP (human) [2] = target: Human CGRP (human) (UniProt P06881); test: SPR, Biacore T100, 37 C, antibody captured on protein A, CGRP as analyte; n=1
Human CGRP (human) [3] = target: Human CGRP (human) (UniProt P06881); test: SPR, Biacore T100, 37 C, antibody captured on protein A, CGRP as analyte; mean ± SD, n=4
Human CGRP (human) [4] = target: Human CGRP (human) (UniProt P06881); test: SPR, Biacore T100, 37 C, antibody captured on protein A, CGRP as analyte; mean ± SD, n=3
Human CGRP (human) [5] = target: Human CGRP (human) (UniProt P06881); test: SPR, Biacore T100, 37 C, antibody captured on protein A, CGRP as analyte; mean ± SD, n=2
[6] = target: T1, human α-CGRP (Bachem H1470) (human, UniProt P06881 83-119); test: cell-based or functional assay
T1 peptide (looked up): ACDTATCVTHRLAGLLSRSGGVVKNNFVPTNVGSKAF

Human CGRP (human) [7] = target: Human CGRP (human) (UniProt P06881); test: SPR, Biacore T100, 37 C, antibody captured on protein A, CGRP as analyte; mean ± SD, n=6

Kd (Human CGRP (human) [1]): < 200000 nM
Kd (Human CGRP (human) [2]): 0.19 nM
B1: Antibody I (antibody, human IgG4 S228P, kappa, F234A L235A, V domains shown)
VH: QVQLVQSGAEVKKPGASVKVSCKASGYTFGNYWMQWVRQAPGQGLEWMGAIYEGTGDTRYIQKFAGRVTMTRDTSTSTVYMELSSLRSEDTAVYYCARLSDYVSGFSYWGQGTLVTVSS
VL: DIQMTQSPSSLSASVGDRVTITCRASQDIDNYLNWYQQKPGKAPKLLIYYTSEYHSGVPSRFSGSGSGTDFTFTISSLQPEDIATYYCQQGDALPPTFGQGTKLEIKR

Kd (Human CGRP (human) [1]): < 200000 nM
Kd (Human CGRP (human) [3]): 0.024 nM
B2: Antibody IV (antibody, human IgG4 S228P, kappa, F234A L235A, V domains shown)
VH: B1 VH with D57K, R59V, S107G
VL: B1 VL with Q27R, D28P, N31K

Kd (Human CGRP (human) [1]): < 200000 nM
Kd (Human CGRP (human) [4]): 0.026 nM
B3: Antibody II (antibody, human IgG4 S228P, kappa, F234A L235A, V domains shown)
VH: B1 VH with D57K, R59V
VL: B1 VL

Kd (Human CGRP (human) [1]): < 200000 nM
Kd (Human CGRP (human) [5]): 0.024 nM
B4: Antibody V (antibody, human IgG4 S228P, kappa, F234A L235A, V domains shown)
VH: B1 VH with A16S, D57K, R59V, M70I, R72A, T74K, V79A, S107G, L114T
VL: B1 VL with N31K, E53G, F73L, I83F, Q100G, L104V

inhibition of CGRP induced cAMP formation in SK-N-MC cells (IC50) [6]: 0.41 nM
Kd (Human CGRP (human) [1]): < 200000 nM
Kd (Human CGRP (human) [7]): 0.031 nM
B5: Antibody III (antibody, human IgG4 S228P, kappa, F234A L235A, V domains shown)
VH: B1 VH with A16S, D57K, R59V, G66D, M70I, R72A, T74K, V79A, S107G, L114T
VL: B1 VL with Q27K, D30S, N31K, E53G, F73L, I83F, Q100G, L104V

inhibition of CGRP induced cAMP formation in SK-N-MC cells (IC50) [6]: 5.36 nM
B6: Antibody G1 (antibody, V domains shown)
VH: EVQLVESGGGLVQPGGSLRLSCAASGFTFSNYWISWVRQAPGKGLEWVAEIRSESDASATHYAEAVKGRFTISRDNAKNSLYLQMNSLRAEDTAVYYCLAYFDYGLAIQNYWGQGTLVTVSS
VL: EIVLTQSPATLSLSPGERATLSCKASKRVTTYVSWYQQKPGQAPRLLIYGASNRYLGIPARFSGSGSGTDFTLTISSLEPEDFAVYYCSQSYNYPYTFGQGTKLEIK

— patent US20110305711A1 (Eli Lilly, published 2011)
